Results as given in patent US20230002480A1.

Legend:
Test in all cases: cell-based or functional assay
[1] = target: HIV-1 Env of pseudovirus TRJO4551.58 (HIV-1)
[2] = target: HIV-1 Env of pseudovirus PVO.4 (HIV-1)
[3] = target: HIV-1 Env of pseudovirus ZM197M.PB7 (HIV-1)
[4] = target: HIV-1 Env of pseudovirus CNE53 (HIV-1)
[5] = target: HIV-1 Env of pseudovirus 263-8 (HIV-1)
[6] = target: HIV-1 Env of pseudovirus 6041.v3.c23 (HIV-1)
[7] = target: HIV-1 Env of pseudovirus SC05_8C11_2344 (HIV-1)
[8] = target: HIV-1 Env of pseudovirus ZM233M.PB6 (HIV-1)
[9] = target: HIV-1 Env of pseudovirus 235-47 (HIV-1)
[10] = target: HIV-1 Env of pseudovirus Ce1086_B2 (HIV-1)
[11] = target: HIV-1 Env of pseudovirus Q23.17 (HIV-1)
[12] = target: HIV-1 Env of pseudovirus 1056_10_TA11_1826 (HIV-1)
[13] = target: HIV-1 Env of pseudovirus R1166.c01 (HIV-1)
[14] = target: HIV-1 Env of pseudovirus 620345.c01 (HIV-1)
[15] = target: HIV-1 Env of pseudovirus 3103.v3.c10 (HIV-1)
[16] = target: HIV-1 Env of pseudovirus 6811.v7.c18 (HIV-1)
[17] = target: HIV-1 Env of pseudovirus 249M B10 (HIV-1)
[18] = target: HIV-1 Env of pseudovirus 1012_11_TC21_3257 (HIV-1)
[19] = target: HIV-1 Env of pseudovirus CNE8 (HIV-1)
[20] = target: HIV-1 Env of pseudovirus BJOX009000.02.4 (HIV-1)
[21] = target: HIV-1 Env of pseudovirus 9004SS_A3_4 (HIV-1)
[22] = target: HIV-1 Env of pseudovirus 3817.v2.c59 (HIV-1)
[23] = target: HIV-1 Env of pseudovirus 3301.v1.c24 (HIV-1)
[24] = target: HIV-1 Env of pseudovirus QH0692.42 (HIV-1)
[25] = target: HIV-1 Env of pseudovirus T250-4 (HIV-1)
[26] = target: HIV-1 Env of pseudovirus HIV-16055-2.3 (HIV-1)
[27] = target: HIV-1 Env of pseudovirus 211-9 (HIV-1)
[28] = target: HIV-1 Env of pseudovirus CNE19 (HIV-1)
[29] = target: HIV-1 Env of pseudovirus 1006_11_C3_1601 (HIV-1)
[30] = target: HIV-1 Env of pseudovirus T278-50 (HIV-1)
[31] = target: HIV-1 Env of pseudovirus HIV-0013095-2.11 (HIV-1)
[32] = target: HIV-1 Env of pseudovirus 928-28 (HIV-1)
[33] = target: HIV-1 Env of pseudovirus ZM135M.PL10a (HIV-1)
[34] = target: HIV-1 Env of pseudovirus ZM53M.PB12 (HIV-1)
[35] = target: HIV-1 Env of pseudovirus 191084 B7-19 (HIV-1)

PGT145 (antibody)
IC50 [1]: > 50 µg/mL | IC80 [1]: > 50 µg/mL | IC50 [2]: 0.192 µg/mL | IC80 [2]: 0.87 µg/mL | IC50 [3]: 0.628 µg/mL | IC80 [3]: 5.24 µg/mL | IC50 [4]: 0.006 µg/mL | IC80 [4]: 0.084 µg/mL | IC50 [5]: 32.1 µg/mL | IC80 [5]: > 50 µg/mL | IC50, titer in TZM.bl cells [6]: 0.964 µg/mL | IC80, titer in TZM.bl cells [6]: > 50 µg/mL | IC50 [7]: 0.093 µg/mL | IC80 [7]: 0.248 µg/mL | IC50 [8]: 0.025 µg/mL | IC80 [8]: 0.68 µg/mL | IC50, titer in TZM.bl cells [9]: 3.21 µg/mL | IC80, titer in TZM.bl cells [9]: 36 µg/mL | IC50 [10]: > 50 µg/mL | IC80 [10]: > 50 µg/mL | IC50 [11]: 1.32 µg/mL | IC80 [11]: > 50 µg/mL | IC50 [12]: 0.23 µg/mL | IC80 [12]: 0.938 µg/mL | IC50, titer in TZM.bl cells [13]: 2.27 µg/mL | IC80, titer in TZM.bl cells [13]: 17.9 µg/mL | IC50, titer in TZM.bl cells [14]: 0.241 µg/mL | IC80, titer in TZM.bl cells [14]: 19.7 µg/mL | IC50, titer in TZM.bl cells [15]: 0.043 µg/mL | IC80, titer in TZM.bl cells [15]: 0.164 µg/mL | IC50, titer in TZM.bl cells [16]: > 50 µg/mL | IC80, titer in TZM.bl cells [16]: > 50 µg/mL | IC50 [17]: 0.947 µg/mL | IC80 [17]: 41.3 µg/mL | IC50 [18]: 0.009 µg/mL | IC80 [18]: 0.025 µg/mL | IC50, titer in TZM.bl cells [19]: 0.272 µg/mL | IC80, titer in TZM.bl cells [19]: 2.24 µg/mL | IC50, titer in TZM.bl cells [20]: 0.117 µg/mL | IC80, titer in TZM.bl cells [20]: 0.745 µg/mL | IC50 [21]: 0.018 µg/mL | IC80 [21]: 0.419 µg/mL | IC50, titer in TZM.bl cells [22]: > 50 µg/mL | IC80, titer in TZM.bl cells [22]: > 50 µg/mL | IC50, titer in TZM.bl cells [23]: 0.219 µg/mL | IC80, titer in TZM.bl cells [23]: 4.22 µg/mL | IC50 [24]: > 50 µg/mL | IC80 [24]: > 50 µg/mL | IC50 [25]: 0.002 µg/mL | IC80 [25]: 0.039 µg/mL | IC50 [26]: 0.003 µg/mL | IC80 [26]: 0.051 µg/mL | IC50, titer in TZM.bl cells [27]: 0.129 µg/mL | IC80, titer in TZM.bl cells [27]: 0.923 µg/mL | IC50 [28]: 0.103 µg/mL | IC80 [28]: 1.13 µg/mL | IC50 [29]: > 50 µg/mL | IC80 [29]: > 50 µg/mL | IC50, titer in TZM.bl cells [30]: 10.3 µg/mL | IC80, titer in TZM.bl cells [30]: > 50 µg/mL | IC50 [31]: 9.27 µg/mL | IC80 [31]: > 50 µg/mL | IC50 [32]: > 50 µg/mL | IC80 [32]: > 50 µg/mL | IC50 [33]: > 50 µg/mL | IC80 [33]: > 50 µg/mL | IC50 [34]: 0.367 µg/mL | IC80 [34]: 11.8 µg/mL | IC50 [35]: 0.028 µg/mL | IC80 [35]: 0.345 µg/mL
